According to the DeepSol protein solubility set:

Test: soluble on expression in E. coli; label from the status in PepcDB or PDB records

| Sequence | soluble on expression in E. coli |
| --- | --- |
| MKLTWIKCMSKTERISDIDEPRLFEENGVEAHIAAFVMPLLKPLGFRLVRVKLLGLNGLTLQIMVERPDGSMTVEDCETVSRTVSPLLDVQNVIERKYHLEISSPGIDRPLVRKSDFFHWQGHIAKIETKIILEGRRKFRGTLTNITQDGFTLNTDKAAYGESMYISIPFDDIIDAHLVLTDELIRDALKKNKDLSQQFISEDNQKLSKQERNYKN | not soluble |
| MKLYYTPGSCSLSPHIVLRETGLDFSIERIDLRTKKTESGKDFLAINPKGQVPVLQLDNGDILTEGVAIVQYLADLKPDRNLIAPPKALERYHQIEWLNFLASEVHKGYSPLFSSDTPESYLPVVKNKLKSKFVYINDVLSKQKCVCGDHFTVADAYLFTLSQWAPHVALDLTDLSHLQDYLARIAQRPNVHSALVTEGLIKE | soluble |
| MKMDRQAQFRAREALIFEVAEQLLLENGEAGMTLDALAAELDLAKGTLYKHFQSKDELYMLLIVRNERMLLEMIQDKQKSFPEHLAFFMLHHLHHPERTVMFHQIEERLSTTGQGIYDLFQELYQVRKQRLRIIINMTEIYLQEIQSTMTVRDYLAAIWSLTHGAAAILNSSFYQRYLGSRDTLRIAYIDQALAIPKHMHEQYV | not soluble |
| MKNDTAALAADIVDFWKKAGPDKWFDKDAAFDNHFHDRFRDAHFAAARRELDGWLEGAESSLALMLLLDQFPRNCFRGTAHMYATDPLARFFADEAIRRGHDQAVSEDLRVFFYLPFSHAEDIAAQQRACDLNQPLGGLYLHHAEEHRDIVERFGRFPHRNGILLRETTPEERQYLEEGGFSG | soluble |
| MKNETLHTQEDIIKMLDSLLRPAEPFWNEFYANREKDVPFFENVPDENLVSYIQKKRVSKGKVLELGCGPGRNAIYLANEGFDVTAVDVSIEGINWAKERALAKGVEIEFICDSIFNLEVQNEFDFVYDSGCLHHIPPHRRVNYVDLIKNALKSGGYFGLTCFAAGDLDERNGSEITDWDVYRGWSLQGGLAYSEEKLREIFKGFEVIEIRKMEQIEQPNTMFGESFLWTALFKKNLEHHHHHH | soluble |
| MKPAKVSLLRRLLHSLKHVDCNIAKRFPSTIKIVKLLMIFMVFTPISSIYAEDVYQNFEELKNNEDPSDYGVVTKETGSPVLVLAIHGGGIEGGTSEVARELSKEYSMYLFEGLKSAGNSVLHITSTHFDEPRALKMTGNHEYVISLHGYAEEDQQIEVGGTDRVRAADLVEKLQHAGFPAVLLNMDHPHAGVSPNNIANKSKTGLSIQIEMSTGFRKSLFGIFSLKSRAVTQNERFYEFTEVMFRFLKNSYLEHHHHHH | not soluble |
| MKPEKRHATESMTMEALLDLLPKDAATDPTGRRLAELVTRIATKRVPVSSFSRIWNLGSLQARVTIGYVAYWLRSRFADSDEKQRLRNEAHLAAALRLFGTMGYLRGAVMKIGQLLANLPEVVPEEFAEVLSALHFEAPPMHFSLVRELFLDEFGREPEELFASFDRQAFAAASLGQVHRARLKSGEEVAVKIQYPGIARTIKADLRNLRLLLQPLCLTNDWQNTLDKLADIEQMLLMETDYEQEARFCREARLLFTTEDRVVVPRVFDDYSTKRVLTTEFLTGCHLDQFLAGNPSQAERDHFTTLLTVATMRIYYRLHWFCADPHPGNFIFMLDGRLGLIDFGCTRAMNGEEWRLICELEQAHQEEDAEQFDRVIARATLYDSPEAMGKEQLAVVRRNVLWNMEPWLKEGLFDFGDREFFMRGIDGLMELTRKRYTRGSPLYLWSTRFVLGGRAVCYQMRGRCEFQEIFRQESAWVCPEPPILEHHHHHH | not soluble |
| MKPLKEYLLIPTQMRVFETQTQAIETSLSVNAQTSESSEAFTVKKDPHEIKVTGKKSGESELVYDLAGFPIKKTKVHVLPDLKVIPGGQSIGVKLHSVGVLVGFHQINTSEGKKSPGETAGIEAGDIIIEMNGQKIEKMNDVAPFIQKAGKTGESLDLLIKRDKQKIKTKLIPEKDEGEGKYRIGLYIRDSAAGIGTMTFYEPKTKKYGALGHVISDMDTKKPIVVENGEIVKSTVTSIEKGTGGNPGEKLARFSSERKTIGDINRNSPFGIFGTLHQPIQNNISDQALPVAFSTEVKKGPAEILTVIDDDKVEKFDIEIVSTTPQKFPATKGMVLKITDPRLLKETGGIVQGMSGSPIIQNGKVIGAVTHVFVNDPTSGYGVHIEWMLSEAGIDIYGKEKASLEHHHHHH | not soluble |
| MKPLLTAMFGATLATASTLASAEVAVIMNAGASAAPSQAEVANIFLGKDTSLKGLDQKGWNPTKERFYSALTNKNESQLKSYWSGLVFTGKGQPLQSVDDDAAVIAKVGSEANAIGYIDTSAVNDKVKVLFTLP | not soluble |
| MKQLMIEASTPLCQLQDAGRFGVRHLGVTQGGALDWVAMHWANWLLGNPLGAPVVEVALGGFCVVAEQDCVLALAGADLDACVDDQPLAPWRSFALAKGQRLTLKQPKVGVRAYLAAPGGFLGEDVLGSCATVVREALGGIDGQGAALAKHQALAFTGSNAPLREVPQALCPQFAQKPVLDLVMGAQIGEFSGTSLFEAFNREWTLDSRADRMGIRLLGPQLVYQGAPMISEGIPLGAVQVPPDGQPIVLLNDRQTIGGYPRLGALTPLALAQLAQCMPGTVVRFRAVVQDEAWREQQLYLGRWS | not soluble |
| MKQLNFKKIFLNLLWPLLPFTAQAQENNTLYSILSKDNILVSSPSVQNQEEDIVTQMPNRHHKYDKRVHRYRRAWEALIPTHTKLQYAGGMGLLSWGIGWDYGKRGQWETDLLLGFIPRYSSKHFKMTMTLKQNYIPWSIWLGKDFSLEPLTTGIYFNTVFSDDFWTSEPERYPRGYYGFSTRIRTHIFLGQRVRFDVPEKYRKFSKSITAFYEISTCDLYVVSAFNNSYLKPDDYLRLSFGLKFQIF | not soluble |
| MKQRHGNSLLTTDTKCISCRLGVPLSPQRRFQAIRIEEVKLRWFAFLIVLLAGCSSKHDYTNPPWNAKVPVQRAMQWMPISQKAGAAWGVDPQLITAIIAIESGGNPNAVSKSNAIGLMQLKASTSGRDVYRRMGWSGEPTTSELKNPERNISMGAAYLNILETGPLAGIEDPKVLQYALVVSYANGAGALLRTFSSDRKKAISKINDLDADEFLDHVARNHPAPQAPRYIYKLEQALDAM | not soluble |
| MKQVAKGLQMEGNFGTAHVYRSSLNAIIAYRGKGDFTFHEVTPEWLKGFEIHLRGRGCSWNTVSTYLRTFRAVYNRAVDCRGAVYVPHLFRSVYTGTRADRKRALCDEDMQKVFAKLPSSPAVTPAMRRTQELFVLMFLLRGLPFVDLAYLRKSDLHDNVITYRRRKTGRPLSVTLTREAMVLLKRYMNRDSSSPYLFSLLESREGTKEAYREYQLALRSFNQQLLLLGQLLGLGDRLSSYTARHTWATTAYYCEIHPGIISEAMGHSSITVTETYLKPFRNKKIDEANQLVTDFVKRIVTGLIA | not soluble |
| MKQYFYERECQNPELREQSLLERLPSFITYAKQECQHYGQILQHIDADKITSRELLAQLPITRKSDLMKLQAKNSPLGGLNANKANIGRIFQSPGPIYDPENTSDDWWRLGQAFYAAGFRAGDIVQNCLSYHLTPGGFILDSGARACGCVVIPAGPGQTEQQLDIIEHLKPQGYSGTPSFLKILLDKAKAENRDISSVTKALVTGEALPKGLRAEFDAAGINTLQAYASADVGLIGFESKSDDGFIIAEDLLVEIVRPGTLEPVADGEIGEVVVTSFNVDYPLIRFATGDLSAVKSSESACGRTNMCIKGWLGRADQTTKIKGMFVHAEQIEQVRQAYPHIAKMRLSVTQVNYNDQMNLQCELDSSGYSEADIAGAIENISSSLKKTTKLNGAVELVAVGTLADDGKVIDDLRPIG | not soluble |
| MKRARSANIPGAILHSLAELQDGLNAMIDPSWRAVRSLDNWALAITMESTELLDSYPWKWWKNLNATPDLANVRIELVDIFHFSLSGAMQMRSTPDDEIPAASLKPLKEVMTTFLPAKECTSDPYGFVFFPLTDTQNAIASFRNIIQLANAYRFDVIIECIIYAAEDLGFNLVAYYIAKHTLNCIRQLSGYKDGSYVKVNNGVEDNSLLHNCIKDVSLDEVLDADKYVQAWNSIMANVYEAFQIKESDRKDAERWFALAKENRLAIKA | soluble |
| MKRDDLMQIIKRDGHVADFDPDKIYQAIIKAARTVYVIDDTWRQNLTHVTKKVVIDLEEAHVERPTINMVQSLVENRLMDAGYITIAEHYISYRLQRDLERNGYGDKIVVHLRFEQIK | soluble |
| MKRFARKETIYLRGEEARTLYRLEEGLVRVVELLPDGRLITLRHVLPGDYFGEEALEGKAYRYTAEAMTEAVVQGLEPRAMDHEALHRVARNLARQMRRVQAYEAHLQTGELRARIARYLLFLADTPLSARDRQGIYVTVSHEEIADATASIRESVSKVLADLRREGLIATAYRRVYLLDLAALEREAGSALEAA | soluble |
